# Laboratory results published in the MegaScale stability set (Tsuboyama et al. 2023).
# B1: EHEE_rd4_0726 (parent)
# chain: DIEITTNGEEDAKRVIKELQKRNLEYHIEVHGNQWVIKVR
# Variants of: B1
# Assay: folding stability dG (cDNA display proteolysis); higher = more stable
# Details: PBS, room temperature
row,Variant,folding stability dG
1,DIEITTNGEEDAKRVIKELQKRNLEYHIEVHDNQWVIKVR,1.85 kcal/mol
2,DIEITTNGEEDAKRVIKELQKRNLEYHIEVHPNQWVIKVR,1 kcal/mol
3,DIEITTNGEEDAKRVIKELQKRNLEYHIEVHSNQWVIKVR,1.21 kcal/mol
4,DIEITTNGEEDAKRVIKELQKRNLEYHIEVHWNQWVIKVR,0.99 kcal/mol
5,DIEITTNGEEDAKRVIKELQKRNLEYHIEVHINQWVIKVR,1.21 kcal/mol
6,DIEITTNGEEDAKRVIKELQKRNLEYHIEVHRNQWVIKVR,1.09 kcal/mol
7,DIEITTNGEEDAKRVIKELQKRNLEYHIEVHMNQWVIKVR,1.43 kcal/mol
8,DIEITTNGEEDAKRVIKELQKRNLEYHIEVHKNQWVIKVR,1.35 kcal/mol
9,DIEITTNGEEDAKRVIKELQKRNLEYHIEVHNNQWVIKVR,1.94 kcal/mol
10,DIEITTNGEEDAKRVIKELQKRNLEYHIEVHTNQWVIKVR,1 kcal/mol
11,DIEITTNGEEDAKRVIKELQKRNLEYHIEVHANQWVIKVR,1.44 kcal/mol
12,DIEITTNGEEDAKRVIKELQKRNLEYHIEVHFNQWVIKVR,1.51 kcal/mol
13,DIEITTNGEEDAKRVIKELQKRNLEYHIEVHQNQWVIKVR,1.59 kcal/mol
14,DIEITTNGEEDAKRVIKELQKRNLEYHIEVHVNQWVIKVR,1.08 kcal/mol
15,DIEITTNGEEDAKRVIKELQKRNLEYHIEVHHNQWVIKVR,1.39 kcal/mol
16,DIEITTNGEEDAKRVIKELQKRNLEYHIEVHYNQWVIKVR,1.19 kcal/mol
17,DIEITTNGEEDAKRVIKELQKRNLEYHIEVHLNQWVIKVR,1.38 kcal/mol
18,DIEITTNGEEDAKRVIKELQKRNLEYHIEVHENQWVIKVR,1.9 kcal/mol
19,DIEITTNGEEDAKRVIKELQKRNLEYHIEVNGNQWVIKVR,2.42 kcal/mol
20,DIEITTNGEEDAKRVIKELQKRNLEYHIEVDGNQWVIKVR,1.79 kcal/mol
21,DIEITTNGEEDAKRVIKELQKRNLEYHIEVLGNQWVIKVR,2.27 kcal/mol
22,DIEITTNGEEDAKRVIKELQKRNLEYHIEVTGNQWVIKVR,2.17 kcal/mol
23,DIEITTNGEEDAKRVIKELQKRNLEYHIEVSGNQWVIKVR,2.12 kcal/mol
24,DIEITTNGEEDAKRVIKELQKRNLEYHIEVCGNQWVIKVR,2.31 kcal/mol
25,DIEITTNGEEDAKRVIKELQKRNLEYHIEVYGNQWVIKVR,2.26 kcal/mol

row,Variant,folding stability dG
1,DIEITTNGEEDAKRVIKELQKRNLEYHIEVPGNQWVIKVR,-0.6 kcal/mol
2,DIEITTNGEEDAKRVIKELQKRNLEYHIEVVGNQWVIKVR,2.61 kcal/mol
3,DIEITTNGEEDAKRVIKELQKRNLEYHIEVKGNQWVIKVR,2.5 kcal/mol
4,DIEITTNGEEDAKRVIKELQKRNLEYHIEVEGNQWVIKVR,1.68 kcal/mol
5,DIEITTNGEEDAKRVIKELQKRNLEYHIEVQGNQWVIKVR,2.29 kcal/mol
6,DIEITTNGEEDAKRVIKELQKRNLEYHIEVWGNQWVIKVR,2.08 kcal/mol
7,DIEITTNGEEDAKRVIKELQKRNLEYHIEVRGNQWVIKVR,2.97 kcal/mol
8,DIEITTNGEEDAKRVIKELQKRNLEYHIEVMGNQWVIKVR,2.32 kcal/mol
9,DIEITTNGEEDAKRVIKELQKRNLEYHIEVFGNQWVIKVR,2.36 kcal/mol
10,DIEITTNGEEDAKRVIKELQKRNLEYHIEVAGNQWVIKVR,1.88 kcal/mol
11,DIEITTNGEEDAKRVIKELQKRNLEYHIEVGGNQWVIKVR,0.973 kcal/mol
12,DIEITTNGEEDAKRVIKELQKRNLEYHIEVIGNQWVIKVR,2.72 kcal/mol
13,DIEITTNGEEDAKRVIKELQKRNLEYHIEVHGNSWVIKVR,2.1 kcal/mol
14,DIEITTNGEEDAKRVIKELQKRNLEYHIEVHGNGWVIKVR,1.42 kcal/mol
15,DIEITTNGEEDAKRVIKELQKRNLEYHIEVHGNMWVIKVR,2.6 kcal/mol
16,DIEITTNGEEDAKRVIKELQKRNLEYHIEVHGNWWVIKVR,2.32 kcal/mol
17,DIEITTNGEEDAKRVIKELQKRNLEYHIEVHGNDWVIKVR,1.68 kcal/mol
18,DIEITTNGEEDAKRVIKELQKRNLEYHIEVHGNRWVIKVR,2.59 kcal/mol
19,DIEITTNGEEDAKRVIKELQKRNLEYHIEVHGNAWVIKVR,1.92 kcal/mol
20,DIEITTNGEEDAKRVIKELQKRNLEYHIEVHGNVWVIKVR,2.72 kcal/mol
21,DIEITTNGEEDAKRVIKELQKRNLEYHIEVHGNKWVIKVR,2.56 kcal/mol
22,DIEITTNGEEDAKRVIKELQKRNLEYHIEVHGNLWVIKVR,2.65 kcal/mol
23,DIEITTNGEEDAKRVIKELQKRNLEYHIEVHGNIWVIKVR,2.87 kcal/mol
24,DIEITTNGEEDAKRVIKELQKRNLEYHIEVHGNNWVIKVR,2.21 kcal/mol
25,DIEITTNGEEDAKRVIKELQKRNLEYHIEVHGNTWVIKVR,2.58 kcal/mol

row,Variant,folding stability dG
1,DIEITTNGEEDAKRVIKELQKRNLEYHIEVHGNYWVIKVR,2.5 kcal/mol
2,DIEITTNGEEDAKRVIKELQKRNLEYHIEVHGNPWVIKVR,-0.908 kcal/mol
3,DIEITTNGEEDAKRVIKELQKRNLEYHIEVHGNFWVIKVR,2.65 kcal/mol
4,DIEITTNGEEDAKRVIKELQKRNLEYHIEVHGNHWVIKVR,2.36 kcal/mol
5,DIEITTNGEEDAKRVIKELQKRNLEYHIEVHGNEWVIKVR,1.85 kcal/mol
6,DIEITTNGEEDAKRVIKELQKRNLEYHIEDHGNQWVIKVR,0.526 kcal/mol
7,DIEITTNGEEDAKRVIKELQKRNLEYHIECHGNQWVIKVR,2.23 kcal/mol
8,DIEITTNGEEDAKRVIKELQKRNLEYHIEYHGNQWVIKVR,2.12 kcal/mol
9,DIEITTNGEEDAKRVIKELQKRNLEYHIEPHGNQWVIKVR,0.866 kcal/mol
10,DIEITTNGEEDAKRVIKELQKRNLEYHIEEHGNQWVIKVR,1.16 kcal/mol
11,DIEITTNGEEDAKRVIKELQKRNLEYHIEFHGNQWVIKVR,2.06 kcal/mol
12,DIEITTNGEEDAKRVIKELQKRNLEYHIEMHGNQWVIKVR,2.01 kcal/mol
13,DIEITTNGEEDAKRVIKELQKRNLEYHIETHGNQWVIKVR,1.71 kcal/mol
14,DIEITTNGEEDAKRVIKELQKRNLEYHIEGHGNQWVIKVR,0.63 kcal/mol
15,DIEITTNGEEDAKRVIKELQKRNLEYHIEKHGNQWVIKVR,2.36 kcal/mol
16,DIEITTNGEEDAKRVIKELQKRNLEYHIEHHGNQWVIKVR,1.94 kcal/mol
17,DIEITTNGEEDAKRVIKELQKRNLEYHIEQHGNQWVIKVR,2.14 kcal/mol
18,DIEITTNGEEDAKRVIKELQKRNLEYHIEWHGNQWVIKVR,1.81 kcal/mol
19,DIEITTNGEEDAKRVIKELQKRNLEYHIEAHGNQWVIKVR,1.41 kcal/mol
20,DIEITTNGEEDAKRVIKELQKRNLEYHIESHGNQWVIKVR,1.32 kcal/mol
21,DIEITTNGEEDAKRVIKELQKRNLEYHIERHGNQWVIKVR,2.43 kcal/mol
22,DIEITTNGEEDAKRVIKELQKRNLEYHIENHGNQWVIKVR,1.57 kcal/mol
23,DIEITTNGEEDAKRVIKELQKRNLEYHIELHGNQWVIKVR,1.86 kcal/mol
24,DIEITTNGEEDAKRVIKELQKRNLEYHIEIHGNQWVIKVR,2.72 kcal/mol
25,DIEITTNGEEDAKRVIKELQKRNLEYHIWVHGNQWVIKVR,1.82 kcal/mol

row,Variant,folding stability dG
1,DIEITTNGEEDAKRVIKELQKRNLEYHIVVHGNQWVIKVR,2.3 kcal/mol
2,DIEITTNGEEDAKRVIKELQKRNLEYHIYVHGNQWVIKVR,2.26 kcal/mol
3,DIEITTNGEEDAKRVIKELQKRNLEYHIEVHGNQAVIKVR,0.294 kcal/mol
4,DIEITTNGEEDAKRVIKELQKRNLEYHIEVHGNQCVIKVR,1.35 kcal/mol
5,DIEITTNGEEDAKRVIKELQKRNLEYHIEVHGNQMVIKVR,1.44 kcal/mol
6,DIEITTNGEEDAKRVIKELQKRNLEYHIEVHGNQIVIKVR,2.06 kcal/mol
7,DIEITTNGEEDAKRVIKELQKRNLEYHIEVHGNQYVIKVR,1.85 kcal/mol
8,DIEITTNGEEDAKRVIKELQKRNLEYHIEVHGNQKVIKVR,0.49 kcal/mol
9,DIEITTNGEEDAKRVIKELQKRNLEYHIEVHGNQLVIKVR,1.53 kcal/mol
10,DIEITTNGEEDAKRVIKELQKRNLEYHIEVHGNQTVIKVR,1.24 kcal/mol
11,DIEITTNGEEDAKRVIKELQKRNLEYHIEVHGNQGVIKVR,-0.933 kcal/mol
12,DIEITTNGEEDAKRVIKELQKRNLEYHIEVHGNQRVIKVR,0.717 kcal/mol
13,DIEITTNGEEDAKRVIKELQKRNLEYHIEVHGNQNVIKVR,-0.421 kcal/mol
14,DIEITTNGEEDAKRVIKELQKRNLEYHIEVHGNQFVIKVR,1.79 kcal/mol
15,DIEITTNGEEDAKRVIKELQKRNLEYHIEVHGNQQVIKVR,0.512 kcal/mol
16,DIEITTNGEEDAKRVIKELQKRNLEYHIEVHGNQHVIKVR,0.787 kcal/mol
17,DIEITTNGEEDAKRVIKELQKRNLEYHIEVHGNQSVIKVR,0.359 kcal/mol
18,DIEITTNGEEDAKRVIKELQKRNLEYHIEVHGNQVVIKVR,1.67 kcal/mol
19,DIEITTNGEEDAKRVIKELQKRNLEYHIEVHGPQWVIKVR,1.78 kcal/mol
20,DIEITTNGEEDAKRVIKELQKRNLEYHIEVHGKQWVIKVR,1.92 kcal/mol
21,DIEITTNGEEDAKRVIKELQKRNLEYHIEVHGIQWVIKVR,1.66 kcal/mol
22,DIEITTNGEEDAKRVIKELQKRNLEYHIEVHGDQWVIKVR,2.5 kcal/mol
23,DIEITTNGEEDAKRVIKELQKRNLEYHIEVHGSQWVIKVR,2.22 kcal/mol
24,DIEITTNGEEDAKRVIKELQKRNLEYHIEVHGHQWVIKVR,2.03 kcal/mol
25,DIEITTNGEEDAKRVIKELQKRNLEYHIEVHGEQWVIKVR,2.16 kcal/mol

row,Variant,folding stability dG
1,DIEITTNGEEDAKRVIKELQKRNLEYHIEVHGAQWVIKVR,2 kcal/mol
2,DIEITTNGEEDAKRVIKELQKRNLEYHIEVHGMQWVIKVR,1.97 kcal/mol
3,DIEITTNGEEDAKRVIKELQKRNLEYHIEVHGVQWVIKVR,1.76 kcal/mol
4,DIEITTNGEEDAKRVIKELQKRNLEYHIEVHGTQWVIKVR,2.24 kcal/mol
5,DIEITTNGEEDAKRVIKELQKRNLEYHIEVHGGQWVIKVR,2.34 kcal/mol
6,DIEITTNGEEDAKRVIKELQKRNLEYHIEVHGQQWVIKVR,2.09 kcal/mol
7,DIEITTNGEEDAKRVIKELQKRNLEYHIEVHGRQWVIKVR,1.68 kcal/mol
8,DIEITTNGEEDAKRVIKELQKRNLEYHIEVHGWQWVIKVR,1.83 kcal/mol
9,DIEITTNGEEDAKRVIKELQKRNLEYHIEVHGYQWVIKVR,1.98 kcal/mol
10,DIEITTNGEEDAKRVIKELQKRNLEYHIEVHGCQWVIKVR,1.96 kcal/mol
11,DIEITTNGEEDAKRVIKELQKRNLEYHIEVHGLQWVIKVR,1.94 kcal/mol
12,DIEITTNGEEDAKRVIKELQKRNLEYHIEVHGFQWVIKVR,2.06 kcal/mol
13,DIEITTNGEEDAKRVIKELQKRNLEYHIEVHGNQWFIKVR,1.85 kcal/mol
14,DIEITTNGEEDAKRVIKELQKRNLEYHIEVHGNQWKIKVR,1.67 kcal/mol
15,DIEITTNGEEDAKRVIKELQKRNLEYHIEVHGNQWCIKVR,1.43 kcal/mol
16,DIEITTNGEEDAKRVIKELQKRNLEYHIEVHGNQWQIKVR,0.978 kcal/mol
17,DIEITTNGEEDAKRVIKELQKRNLEYHIEVHGNQWHIKVR,1.47 kcal/mol
18,DIEITTNGEEDAKRVIKELQKRNLEYHIEVHGNQWIIKVR,2.7 kcal/mol
19,DIEITTNGEEDAKRVIKELQKRNLEYHIEVHGNQWSIKVR,0.912 kcal/mol
20,DIEITTNGEEDAKRVIKELQKRNLEYHIEVHGNQWMIKVR,1.37 kcal/mol
21,DIEITTNGEEDAKRVIKELQKRNLEYHIEVHGNQWEIKVR,0.046 kcal/mol
22,DIEITTNGEEDAKRVIKELQKRNLEYHIEVHGNQWAIKVR,0.418 kcal/mol
23,DIEITTNGEEDAKRVIKELQKRNLEYHIEVHGNQWLIKVR,1.93 kcal/mol
24,DIEITTNGEEDAKRVIKELQKRNLEYHIEVHGNQWRIKVR,1.7 kcal/mol
25,DIEITTNGEEDAKRVIKELQKRNLEYHIEVHGNQWNIKVR,0.793 kcal/mol
